Literature values in article PMC5428663, “Identification of small molecule inhibitors of Interleukin-18” (Scientific Reports, 2017).

Target: IL-18 (Homo sapiens) (UniProt Q14116)
Sequence (Q14116 37-193): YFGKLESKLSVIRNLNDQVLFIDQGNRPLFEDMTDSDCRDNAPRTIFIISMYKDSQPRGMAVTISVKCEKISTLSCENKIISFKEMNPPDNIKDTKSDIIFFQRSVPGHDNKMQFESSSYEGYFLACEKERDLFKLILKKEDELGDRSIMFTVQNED

Chain of IL-18BP (O95998 31-194): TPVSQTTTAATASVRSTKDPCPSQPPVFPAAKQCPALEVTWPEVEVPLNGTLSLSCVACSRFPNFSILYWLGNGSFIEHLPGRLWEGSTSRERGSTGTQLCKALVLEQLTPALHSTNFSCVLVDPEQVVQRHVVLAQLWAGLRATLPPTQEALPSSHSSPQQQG

Q: With IL-18BP (from UniProt O95998) as the substance, how does the Kd read?
A: The Kd was 0.4 nM.
